Assay results taken from the supplement of paper PMC11811203.

B1: THAP1; numbered along this chain (parent)
chain: MVQSCSAYGCKNRYDKDKPVSFHKFPLTRPSLCKEWEAAVRRKNFKPTKYSSICSEHFTPDCFKRECNNKLLKENAVPTIFLCTEPHDKKEDLLEPQEQLPPPPLPPPVSQVDAAIGLLMPPLQTPVNLSVFCDHNYTVEDTMHQRKRIHQLEQQVEKLRKKLKTAQQRCRRQERQLEKLKEVVHFQKEKDDVSERGYVILPNDYFEIVEVPA

Variants of: B1
Experiment: THAP1 transcriptional activity (GFP+/GFP- enrichment relative to wild-type constructs) (ratio to WT); higher = more THAP1 activity (PSMB5 reporter activation)
Details: with PSMB5 promoter-GFP reporter
How it was run: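 A lentiviral site-saturation library covering residues 2–213 of human THAP1, with each position changed to all 20 amino acids, was transduced in duplicate at MOI ~0.3 into THAP1-knockout HEK-293T cells with mClover3 knocked in at endogenous PSMB5. Five days later, BFP+ cells were sorted into GFP-dim and GFP-bright bins and variants were counted by Illumina sequencing of genomic DNA amplicons. Activity is the bright/dim read fold change averaged over replicates and divided by the mean of wild-type synonymous constructs.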

| Variant | THAP1 transcriptional activity |
| --- | --- |
| A39K | 0.9 |
| C133N | 1.15 |
| S21T | 0.174 |
| S21V | 0.0819 |
| S21C | 0.0926 |
| Q3M | 0.486 |
| Y198I | 1.25 |
| F22G | 0.0652 |
| F22P | 0.132 |
| P121I | 0.299 |
| P121G | 0.454 |
| V109I | 0.777 |
| V131M | 0.291 |
| Q154A | 1.06 |
| Q154W | 0.539 |
| F186C | 2.01 |
| A115T | 0.594 |
| N68G | 0.127 |
| I80G | 0.55 |
| R41I | 0.146 |
| E174R | 1.48 |
| G117S | 0.877 |
| T59C | 0.138 |
| I116D | 1.33 |

| Variant | THAP1 transcriptional activity |
| --- | --- |
| L129P | 0.79 |
| L201M | 0.715 |
| H150L | 0.769 |
| H150E | 0.884 |
| F81C | 0.223 |
| E66S | 1.14 |
| V112P | 1.04 |
| N136S | 0.345 |
| N136R | 0.364 |
| N128G | 0.685 |
| F206Q | 0.86 |
| R146F | 0.489 |
| R146D | 0.548 |
| C62H | 0.173 |
| V193D | 0.999 |
| Q111W | 0.132 |
| E37P | 0.245 |
| E37R | 0.157 |
| K46V | 0.455 |
| K49C | 0.185 |
| K49A | 0.22 |
| P103M | 0.728 |
| H23Q | 0.0718 |
| S4I | 0.182 |

| Variant | THAP1 transcriptional activity |
| --- | --- |
| E85D | 0.708 |
| T79P | 0.18 |
| M120I | 1.14 |
| A7Y | 0.218 |
| P212L | 1.42 |
| R172K | 0.684 |
| S52P | 0.096 |
| S52G | 0.141 |
| S52F | 0.325 |
| I200C | 0.615 |
| I200F | 0.819 |
| V139K | 1.41 |
| P104T | 1.39 |
| V184M | 1.22 |
| V184Y | 0.826 |
| S194R | 0.998 |
| V183W | 0.798 |
| V183R | 0.844 |
| Q97H | 0.853 |
| Q97G | 0.874 |
| Q97P | 1.25 |
| K158L | 0.386 |
| N75Y | 0.177 |
| P47I | 0.36 |

| Variant | THAP1 transcriptional activity |
| --- | --- |
| P47D | 0.108 |
| K73Y | 0.291 |
| F58A | 0.0948 |
| L27Q | 0.235 |
| L27C | 0.14 |
| Q168Y | 0.173 |
| L94E | 1.42 |
| D92W | 0.658 |
| S55R | 0.113 |
| S6D | 0.163 |
| S6W | 0.163 |
| S6Q | 0.103 |
| D113Y | 0.229 |
| D15C | 0.853 |
| D15V | 0.631 |
| V20G | 0.125 |
| V20P | 0.101 |
| V20N | 0.161 |
| P122S | 0.627 |
| P122K | 0.728 |
| H135F | 0.196 |
| H135N | 0.183 |
| H135Y | 0.217 |
| H135T | 0.111 |

| Variant | THAP1 transcriptional activity |
| --- | --- |
| K162G | 0.11 |
| K162W | 0.206 |
| K162H | 0.273 |
| S51P | 0.118 |
| S51C | 0.128 |
| C33K | 0.22 |
| C33I | 0.159 |
| Y8G | 0.241 |
| C83D | 2.06 |
| Q187K | 0.719 |
| Q187T | 0.99 |
| K11S | 0.282 |
| A38P | 0.09 |
| P101H | 0.968 |
| L180R | 0.417 |
| V127R | 1.19 |
| Y50G | 0.1 |
| H144K | 0.954 |
| C170Y | 0.702 |
| T165D | 0.416 |
| T165Y | 0.379 |
| F45D | 0.0693 |
| F45E | 0.0902 |
| A166M | 0.882 |

| Variant | THAP1 transcriptional activity |
| --- | --- |
| A166V | 0.718 |
| A166P | 0.211 |
| P96T | 1.6 |
| P96D | 1.15 |
| N12R | 0.172 |
| N12V | 0.129 |
| D134G | 0.148 |
| Y205A | 1.86 |
| Y205H | 1.38 |
| R160W | 0.309 |
| R160V | 0.339 |
| W36L | 0.338 |
| Q99T | 1.16 |
| Y137R | 0.214 |
| P202G | 0.98 |
| P202F | 0.497 |
| K64L | 0.145 |
| M143A | 0.634 |
| S110Y | 0.394 |
| S110A | 0.787 |
| D17I | 0.0905 |
| V2I | 0.157 |
| R175H | 0.492 |
| L159G | 0.147 |

| Variant | THAP1 transcriptional activity |
| --- | --- |
| F132R | 0.942 |
| Q151V | 0.675 |
| Q151M | 0.894 |
| R29L | 0.0833 |
| H57M | 0.138 |
| H57R | 0.183 |
| E140R | 1.3 |
| C5G | 0.131 |
| V40N | 0.136 |
| V40W | 0.169 |
| L152W | 0.246 |
| L72S | 0.092 |
| P78R | 0.156 |
| E35H | 0.328 |
| V156E | 0.213 |
| V156L | 0.731 |
| E91F | 0.403 |
| P106E | 2.61 |
| P106N | 1.89 |
| P106D | 1.76 |
| P106K | 1.89 |
| P102C | 1.36 |
| Q124K | 0.879 |
